Changes are numbered by the printed parent chain. Names and notes keep the numbering of the source.
B1: A97T (protein)
chain: MQLRNPELHLGCALALRFLALVSWDIPGARALDNGLARTPTMGWLHWERFMCNLDCQEEPDSCISEKLFMEMAELMVSEGWKDAGYEYLCIDDCWMTPQRDSEGRLQADPQRFPHGIRQLANYVHSKGLKLGIYADVGNKTCAGFPGSFGYYDIDAQTFADWGVDLLKFDGCYCDSLENLADGYKHMSLALNRTGRSIVYSCEWPLYMWPFQKPNYTEIRQYCNHWRNFADIDDSWKSIKSILDWTSFNQERIVDVAGPGGWNDPDMLVIGNFGLSWNQQVTQMALWAIMAAPLFMSNDLRHISPQAKALLQDKDVIAINQDPLGKQGYQLRQGDNFEVWERPLSGLAWAVAMINRQEIGGPRSYTIAVASLGKGVACNPACFITQLLPVKRKLGFYEWTSRLRSHINPTGTVLLQLENTMQMSLKDLL
B2: G104D (protein)
chain: B1 chain with T97A, G104D
B3: D101G (protein)
chain: B1 chain with T97A, D101G
B4: P98R (protein)
chain: B1 chain with T97A, P98R
B5: S102A (protein)
chain: B1 chain with T97A, S102A
B6: P98H (protein)
chain: B1 chain with T97A, P98H
B7: Q99L (protein)
chain: B1 chain with T97A, Q99L
B8: Q99R (protein)
chain: B1 chain with T97A, Q99R
B9: D101A (protein)
chain: B1 chain with T97A, D101A
B10: Q99E (protein)
chain: B1 chain with T97A, Q99E
B11: Q99P (protein)
chain: B1 chain with T97A, Q99P
B12: D101V (protein)
chain: B1 chain with T97A, D101V
B13: D101E (protein)
chain: B1 chain with T97A, D101E
B14: S102P (protein)
chain: B1 chain with T97A, S102P
B15: G104A (protein)
chain: B1 chain with T97A, G104A
B16: S102T (protein)
chain: B1 chain with T97A, S102T
B17: D101H (protein)
chain: B1 chain with T97A, D101H
B18: P98L (protein)
chain: B1 chain with T97A, P98L

System: mutant form of α-Gal A expressed in HEK-293 cells
Assay: HEK assay (GLP HEK / Migalastat Amenability Assay): α-Gal A activity in lysates of transiently transfected HEK-293 cells incubated with or without 10 μM migalastat
Type: cell-based, human
Settings: for Absolute increase (% WT): 10 μM migalastat versus baseline; for Relative increase: 10 μM migalastat α-Gal A activity relative to baseline; for 10 μM migalastat α-Gal A activity (% WT): 5 days; for 10 μM migalastat α-Gal A activity (% WT) / Baseline α-Gal A activity (% WT): percentage of baseline wild-type α-Gal A activity; for 10 μM migalastat α-Gal A activity (% WT) / Baseline α-Gal A activity (% WT) / Baseline α-Gal A activity / 10 μM migalastat α-Gal A activity: mean ± SEM; for Baseline α-Gal A activity (% WT): absence of migalastat; for Baseline α-Gal A activity / 10 μM migalastat α-Gal A activity: lysates of HEK-293 cells transfected with the mutant form; for Baseline α-Gal A activity: incubated 5 days in the absence of migalastat; for 10 μM migalastat α-Gal A activity: incubated 5 days with 10 μM migalastat
Method: Such mutations or variants are also referred to herein as “HEK assay amenable” mutations or variants.
The α-Gal A activity is expressed as the nmoles of free 4-MU released per milligram of protein per hour (nmol/mg/hr).
In Table 7, values for the mean±standard error of the mean (SEM) were calculated. nmol/mg/hr indicates “nmoles of free 4-MU released per mg of protein per hour”. WT indicates “wild-type”. NC indicates “not calculable”. N/A indicates “not applicable”.

Molecule	Absolute increase (% WT)	Relative increase	10 μM migalastat α-Gal A activity (% WT)	Baseline α-Gal A activity (% WT)	Baseline α-Gal A activity	10 μM migalastat α-Gal A activity
B1	21.4 % WT	1.8	50.9 ± 2.7 % WT	29.4 ± 2.2 % WT	11157 ± 776 nmol/mg/h	19875 ± 1502 nmol/mg/h
B2	30.5 % WT	1.8	69.8 ± 4.7 % WT	39.3 ± 2.6 % WT	14123 ± 1096 nmol/mg/h	24797 ± 1771 nmol/mg/h
B3	12.7 % WT	1.3	54.5 ± 3.8 % WT	41.8 ± 3.1 % WT	18091 ± 1103 nmol/mg/h	23672 ± 1428 nmol/mg/h
B4	16.4 % WT	1.3	85.8 ± 5.8 % WT	69.4 ± 4 % WT	24969 ± 1730 nmol/mg/h	31289 ± 2550 nmol/mg/h
B5	27.3 % WT	1.6	69.9 ± 5.1 % WT	42.6 ± 3.5 % WT	17330 ± 2084 nmol/mg/h	26790 ± 1958 nmol/mg/h
B6	22.5 % WT	1.4	83.4 ± 4.6 % WT	60.8 ± 3.1 % WT	21896 ± 1232 nmol/mg/h	29920 ± 1808 nmol/mg/h
B7	27.4 % WT	1.4	93.4 ± 7.3 % WT	65.9 ± 5.1 % WT	23382 ± 1548 nmol/mg/h	33479 ± 2746 nmol/mg/h
B8	21.4 % WT	1.2	114.8 ± 8 % WT	93.4 ± 6.3 % WT	32963 ± 1757 nmol/mg/h	41024 ± 3001 nmol/mg/h
B9	10.2 % WT	1.5	34.1 ± 3.3 % WT	23.9 ± 3 % WT	10144 ± 1069 nmol/mg/h	14707 ± 1289 nmol/mg/h
B10	25.5 % WT	1.4	95.8 ± 7.9 % WT	70.3 ± 4.1 % WT	25264 ± 1668 nmol/mg/h	34635 ± 3117 nmol/mg/h
B11	19.1 % WT	3.3	28 ± 2.4 % WT	8.8 ± 1.2 % WT	3034 ± 340 nmol/mg/h	9885 ± 794 nmol/mg/h
B12	10.2 % WT	2.2	18 ± 2.6 % WT	7.8 ± 0.5 % WT	3368 ± 179 nmol/mg/h	7489 ± 936 nmol/mg/h
B13	10.1 % WT	1.4	34 ± 2.8 % WT	23.9 ± 1.6 % WT	10465 ± 624 nmol/mg/h	14682 ± 993 nmol/mg/h
B14	22.3 % WT	1.3	91.7 ± 5 % WT	69.4 ± 3.4 % WT	27252 ± 1778 nmol/mg/h	35885 ± 2754 nmol/mg/h
B15	40.4 % WT	3.7	55.2 ± 3 % WT	14.8 ± 1 % WT	5271 ± 397 nmol/mg/h	19670 ± 1202 nmol/mg/h
B16	20.5 % WT	1.3	76.9 ± 6.2 % WT	56.4 ± 5.2 % WT	22123 ± 2319 nmol/mg/h	29662 ± 2559 nmol/mg/h
B17	7.3 % WT	1.4	23.8 ± 1.3 % WT	16.5 ± 1.2 % WT	7311 ± 556 nmol/mg/h	10493 ± 561 nmol/mg/h
B18	19.6 % WT	1.3	88.5 ± 6.3 % WT	69 ± 5.5 % WT	24223 ± 1555 nmol/mg/h	31835 ± 2399 nmol/mg/h
